In data set [1] the test system is JNK. Briefly: Activation of JNK by cisplatin in 293T cell lines (Western blot). To be noted: 293T cells stably expressing GSE 24.2 vs pLNCX; cisplatin 6 hours. In kind it is cell-based, human. As for the experimental part: FIG. 2.—Cell viability and activation of the JNK and p38 death pathways in 293T cell lines: pLNCX and 24.2, treated with cisplatin. A) Cell viability. After seeding the 293T cells: expressing the empty vector (pLNCX) and GSE 24.2 (24.2) in 24-well plates, they were incubated with concentrations between 0-100 μg/ml of cisplatin. The cell viability was measured by means of the crystal violet technique after 72 hours of exposure to the drug. The data represent the mean of two experiments performed in quadruplicate. B) Activation kinetics. Subsequently, the activation of JNK and p38 was studied using antibodies that specifically recognise the active forms. As a load control, the levels of JNK-1 were detected.
The pLNCX24-2 plasmid containing GSE of the same name was transfected in a stable manner in the 293T cells and, as a control, the pLNCX empty vector was transfected. After verifying, by means of PCR, that the 24.2 cell line contained this insert (data not shown), the response to cisplatin was studied, creating a viability curve with this drug. […] JNK and p38 are MAPKs that are activated in response to genotoxic agents (Sanchez-Perez et al., 1998).
Western Blot and antibodies. 20 μg of protein were separated in SDS-polyacrylamide gels; subsequently, they were transferred to Immobilon-P membranes (Millipore) by humid transfer. […]

Data set [2] relates to hTERT promoter. Kind of data set: hTERT-luc reporter (luciferase) assay in 293T cells. In kind it is cell-based, human. Here is the method:
FIG. 8.—Activity of the hTERT promoter in the 293T cell lines: pLNCX and 24.2 and in 293T cells transiently transfected with the pLNCX-24.2 construct and the pLNCX empty plasmid. A) Both the pLNCX and the 24.2 cells were transiently transfected with 0.25 μg of the hTERT-luc reporter vector. The cells were seeded in 60-mm plates. After 24 hours of transfection, the cells were lysed and the luciferase activity of 10 μg of total protein was quantified. As a transfection control, the cells were co-transfected with a reporter vector, CMV-Renilla. B) The 293T cells were transfected with the pLNCX vector and the 24.2 plasmid (5 μg), and both were co-transfected with 0.25 μg of the hTERT-luc reporter vector. After seeding the cells as in A, they were transfected with pLNCX and 24.2, and co-transfected with the hTERT-luc reporter vector; subsequently, they were treated as in A. As a transfection control, the CMV-Renilla reporter vector was used. The data correspond to the ratio of relative units of luciferase with respect to non-transfected cells. Each point represents the mean±the standard deviation obtained from 3 independent experiments. C) The 293T cells were transfected with the different GSE 24.4, DSK, TRUB I, TRUB II constructs and the pLNCX empty plasmid (5 μg), and co-transfected with 0.25 μg of the hTERT-luc reporter vector. The cells were seeded in 60-mm plates; after 24 hours of transfection, the cells were lysed and the luciferase activity of 10 μg of total protein was quantified. As a transfection control, the cells were co-transfected with a CMV-Renilla reporter vector. The data correspond to the ratio of relative units of luciferase with respect to non-transfected cells. Each point represents the mean±the standard deviation obtained from 3 independent experiments.
FIG. 9.—Activity of the hTERT promoter following treatment with cisplatin. A) Both the pLNCX cell line and the 24.2 cell line were transiently transfected with 0.25 μg of the hTERTIuc reporter vector. After 24 hours of transfection, they were treated with 3 μg/ml of cisplatin for 8 hours. The cells were seeded in 60-mm plates; after 24 hours of transfection and following treatment with cDDP, the cells were lysed and the luciferase activity of 10 μg of total protein was quantified. As a transfection control, the cells were co-transfected with a CMV-Renilla reporter vector. B) 293T cells which, after being transiently transfected with pLNCX and 24.2, were co-transfected with 0.25 μg of the hTERT-luc reporter vector and treated as in A. After seeding the cells as in A, they were transfected with pLNCX and 24.2, and co-transfected with the hTERT-luc reporter vector; subsequently, they were treated as in A. As a transfection control, the CMV-Renilla reporter vector was used. The data correspond to the ratio of relative units of luciferase with respect to non-transfected cells. Each point represents the mean±the standard deviation obtained from 3 independent experiments.
A) The 293T cells were co-transfected with different constructs (10 μg/DNA per million cells) and the hTERT-luc reporter (1 μg per million cells). The specified cell lines were co-transfected with the hTERT-luc reporter and different quantities of the Mad/myc expression vector. (B) The specified cell lines were co-transfected with the HIV-luc reporter and with different quantities of the Mad/myc expression vector. After 24 h of transfection, the cells were stimulated with 50 ng/ml of TNF-α for 6 hours and the luciferase activity was analysed as described above. CMV-Renilla (0.1 μg/ml per million cells) was used as a control for the transfection efficiency. The data represent the mean of two experiments performed in quadruplicate.
The pseudouridine synthase TRUB domain of dyskerin comprises two structural subdomains: the Trub I and II motifs (Zucchini et al., 2003). These two domains are critical to maintain the global protein structure of dyskerin. […]

“Also recorded” adds a separate entry of the source.

B1: GSE 24.2: 165-pb cDNA fragment (nucleotides 268 to 433) of human dyskerin, SEQ ID NO1, encoding peptide SEQ ID NO2, expressed from pLNCX plasmid (nucleic acid, listed as Homo sapiens)
DNA: GGTTTCATTAATCTTGACAAGCCCTCTAACCCCTCTTCCCATGAGGTGGTAGCCTGGATTCGACGGATACTTCGGGTGGAGAAGACAGGGCACAGTGGTACTCTGGATCCCAAGGTGACTGGTTGTTTAATCGTGTGCATAGAACGAGCCACTCGCTTGGTGAAG
modifications: expressed from pLNCX plasmid; CDS (1)..(165) Sequence GSE 24.2
Take B1: the “dose of cisplatin required to activate JNK” value in data set [1] was “a greater dose of cisplatin is required to activate both kinases”. Further, the “activity of the hTERT promoter, transient expression” value in data set [2] (293T cells transiently transfected with construct vs empty vector, hTERT-luc, 24 hours) is reported as “increases the activity of the hTERT promoter”. Besides, the “hTERT promoter activity following cisplatin, transient expression” value in data set [2] (293T transiently expressing GSE 24.2 vs pLNCX, 3 μg/ml cisplatin 8 hours) was “greater than the baseline activity”. Further, the “activity of the hTERT promoter, stable expression” value in data set [2] (pLNCX 24.2 cell line vs pLNCX, hTERT-luc, 24 hours) was “the activity of the hTERT promoter is greater; also recorded: increased the baseline activity of the telomerase promoter”. For the same molecule, the “induction of hTERT promoter activity following cisplatin, relative to pLNCX cells” value in data set [2] (stable pLNCX 24.2 cells, 3 μg/ml cisplatin for 8 hours) was 4 times.
